Results as given in the supplement of paper PMC7877785.
± gives the uncertainty stated by the source.

Assay: self-splicing fitness, log relative to wild type (ln ratio); higher = more splicing; Tetrahymena group I intron in knt gene, E. coli kanamycin selection, DiMSum; sequences stand for … in CUCUCU…GGAGGGAAAAGUUAUCAGGCAUGCACCUGGUAGCUAGUCUUUAAACCAAUAGAUUGCAUCGGUUUAAAAGGCAAGACCGUCAAAUUGCGGGAAAGGGGUCAACAGCCGUUCAGUACCAAGUCUCAGGGGAAACUUUGAGAUGGCCUUGCAAAGGGUAUGGUAAUAAGCUGACGGACAUGGUCCUAACCACGCAGCCAAGUCCUAAGUCAACAGAUCUUCUGUUGAUAUGGAUGCAGUUCACAGACUAAAUGUCGGUCGGGGAAGAUGUAUUCUUCUCAUAAGAUAUAGUCGGACCUCUCCUUAAUGGGAGCUAGCGGAUGAAGUGAUGCAACACUGGAGCCGCUGGGAACUAAUUUGUAUGCGAAAGUAUAUUGAUUAGUUUUGGAGUACUCGUGGUCG
In short: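 The eight P1ex-region nucleotides of an intron in the knt kanamycin-resistance gene on pET-22b(+) were all randomised and the library put into E. coli BL21(DE3). Six replicate transformations were grown overnight at 37°C or 30°C on LB agar with or without 25 μg/mL kanamycin, together with 100 μg/mL carbenicillin, 50 μM IPTG and 0.2% rhamnose. Colonies were pooled and amplicon-sequenced on an Illumina HiSeq 2500. Fitness from DiMSum is the error-weighted combination of wild-type-normalised replicate fold changes, kanamycin over none.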

| Sequence | self-splicing fitness (ln) (30 °C) | self-splicing fitness (ln) (37 °C) |
| --- | --- | --- |
| UACUAGCAAUAUUACGUUGC | -2.38 ± 0.26 | -1.85 ± 0.28 |
| UAGAAGCAAUAUUACGACUU | -0.772 ± 0.11 | -0.183 ± 0.17 |
| UAGAAGCAAUAUUACGAGAA | -1.7 ± 0.44 | -1.55 ± 0.35 |
| UAGAAGCAAUAUUACGAGCG | -0.732 ± 0.096 | -0.815 ± 0.13 |
| UAGAAGCAAUAUUACGAGGA | -3.7 ± 0.2 | -2.06 ± 0.15 |
| UAGAAGCAAUAUUACGCAGA | -3.4 ± 0.34 | -1.79 ± 0.18 |
| UAGAAGCAAUAUUACGCAUC | -3 ± 0.23 | -3.37 ± 0.31 |
| UAGAAGCAAUAUUACGCCUA | -0.42 ± 0.13 | 0.0572 ± 0.14 |
| UAGAAGCAAUAUUACGCGGA | -1.64 ± 0.13 | -0.655 ± 0.11 |
| UAGAAGCAAUAUUACGCGUA | -0.436 ± 0.11 | -0.472 ± 0.12 |
| UAGAAGCAAUAUUACGCUUU | – | -1.99 ± 0.3 |
| UAGAAGCAAUAUUACGGCGG | -0.497 ± 0.099 | 0.388 ± 0.12 |
| UAGAAGCAAUAUUACGUAAA | -2.04 ± 0.14 | -1.33 ± 0.14 |
| UAGCAGCAAUAUUACGAACU | -0.336 ± 0.18 | 0.618 ± 0.14 |
| UAGCAGCAAUAUUACGAAUG | -0.736 ± 0.072 | -0.47 ± 0.13 |
| UAGCAGCAAUAUUACGACAA | -1.68 ± 0.12 | -0.157 ± 0.14 |
| UAGCAGCAAUAUUACGACCC | – | -0.938 ± 0.41 |
| UAGCAGCAAUAUUACGACUG | -0.817 ± 0.14 | -0.556 ± 0.18 |
| UAGCAGCAAUAUUACGAGCG | 0.035 ± 0.078 | 0.235 ± 0.098 |
| UAGCAGCAAUAUUACGAUCG | -0.76 ± 0.093 | -0.0334 ± 0.12 |
| UAGCAGCAAUAUUACGCCGA | -0.884 ± 0.14 | 0.482 ± 0.14 |
| UAGCAGCAAUAUUACGCCGG | -0.94 ± 0.096 | -0.0813 ± 0.15 |
| UAGCAGCAAUAUUACGGACG | -0.528 ± 0.08 | -0.837 ± 0.1 |
| UAGCAGCAAUAUUACGGCCA | 0.54 ± 0.1 | 0.33 ± 0.16 |
| UAGCAGCAAUAUUACGGCCU | -0.225 ± 0.093 | 0.118 ± 0.12 |
| UAGCAGCAAUAUUACGUACA | -1.16 ± 0.091 | -0.0473 ± 0.1 |
| UAGCAGCAAUAUUACGUACC | -1.91 ± 0.38 | – |

| Sequence | self-splicing fitness (ln) (30 °C) | self-splicing fitness (ln) (37 °C) |
| --- | --- | --- |
| UAGCAGCAAUAUUACGUCCC | -3.06 ± 0.41 | -1.7 ± 0.4 |
| UAGGAGCAAUAUUACGAACC | -3.08 ± 0.41 | – |
| UAGGAGCAAUAUUACGCACA | -0.278 ± 0.33 | -0.212 ± 0.38 |
| UAGGAGCAAUAUUACGCACU | – | -0.383 ± 0.28 |
| UAGGAGCAAUAUUACGCGGA | -3.57 ± 0.38 | -2.52 ± 0.26 |
| UAGGAGCAAUAUUACGCGUG | -2.31 ± 0.12 | -0.579 ± 0.12 |
| UAGGAGCAAUAUUACGCUCG | -1.49 ± 0.21 | 0.196 ± 0.24 |
| UAGGAGCAAUAUUACGGAAU | -4.06 ± 0.36 | -2.51 ± 0.33 |
| UAGGAGCAAUAUUACGGAGA | – | -2.34 ± 0.38 |
| UAGGAGCAAUAUUACGGAGU | -1.77 ± 0.36 | – |
| UAGGAGCAAUAUUACGGGAU | -3.21 ± 0.35 | -2.27 ± 0.37 |
| UAGGAGCAAUAUUACGGUUA | -1.64 ± 0.12 | 0.0427 ± 0.11 |
| UAGGAGCAAUAUUACGUAGU | -3.13 ± 0.3 | -1.81 ± 0.3 |
| UAGGAGCAAUAUUACGUAUU | -1.97 ± 0.36 | -2.45 ± 0.41 |
| UAGGAGCAAUAUUACGUGAU | -3.75 ± 0.35 | -1.44 ± 0.3 |
| UAGGAGCAAUAUUACGUGCU | -3.16 ± 0.34 | -1.05 ± 0.23 |
| UAGUAGCAAUAUUACGAACU | -0.595 ± 0.16 | -1.05 ± 0.15 |
| UAGUAGCAAUAUUACGACUG | 0.526 ± 0.14 | -0.333 ± 0.17 |
| UAGUAGCAAUAUUACGAGUC | -4.06 ± 0.33 | -2.03 ± 0.23 |
| UAGUAGCAAUAUUACGCCAG | -2.8 ± 0.15 | -1.94 ± 0.15 |
| UAGUAGCAAUAUUACGCCCG | -0.0603 ± 0.35 | 0.255 ± 0.44 |
| UAGUAGCAAUAUUACGCGAU | -2.23 ± 0.42 | -0.904 ± 0.3 |
| UAGUAGCAAUAUUACGCGCC | -2.32 ± 0.28 | -0.984 ± 0.23 |
| UAGUAGCAAUAUUACGCUGU | -3.6 ± 0.36 | -1.91 ± 0.32 |
| UAGUAGCAAUAUUACGGAGC | -2.84 ± 0.35 | – |
| UAGUAGCAAUAUUACGGAGG | – | -1.43 ± 0.44 |
| UAGUAGCAAUAUUACGGCGA | -1.17 ± 0.17 | -0.54 ± 0.17 |

| Sequence | self-splicing fitness (ln) (30 °C) | self-splicing fitness (ln) (37 °C) |
| --- | --- | --- |
| UAGUAGCAAUAUUACGGCUA | 0.21 ± 0.14 | -0.257 ± 0.19 |
| UAGUAGCAAUAUUACGGUUU | -3.57 ± 0.31 | -0.883 ± 0.16 |
| UAGUAGCAAUAUUACGUCUU | -0.75 ± 0.097 | -0.388 ± 0.11 |
| UAUAAGCAAUAUUACGAAUG | -1.24 ± 0.087 | -0.222 ± 0.11 |
| UAUAAGCAAUAUUACGAAUU | -2.74 ± 0.19 | -0.731 ± 0.2 |
| UAUAAGCAAUAUUACGACGC | -3.44 ± 0.23 | -1.19 ± 0.17 |
| UAUAAGCAAUAUUACGAGGG | -3.42 ± 0.3 | – |
| UAUAAGCAAUAUUACGAGGU | -3.53 ± 0.23 | -2.54 ± 0.23 |
| UAUAAGCAAUAUUACGAUUA | -0.327 ± 0.073 | 0.291 ± 0.098 |
| UAUAAGCAAUAUUACGAUUC | -2.68 ± 0.15 | -1.57 ± 0.32 |
| UAUAAGCAAUAUUACGCAAC | -3.03 ± 0.4 | – |
| UAUAAGCAAUAUUACGCACA | -0.168 ± 0.085 | -0.211 ± 0.11 |
| UAUAAGCAAUAUUACGCACG | -0.779 ± 0.16 | -0.566 ± 0.17 |
| UAUAAGCAAUAUUACGCGGA | -2.14 ± 0.18 | -0.954 ± 0.16 |
| UAUAAGCAAUAUUACGCGGU | -3.64 ± 0.26 | -3.54 ± 0.34 |
| UAUAAGCAAUAUUACGCUAC | -3.61 ± 0.21 | -1.32 ± 0.17 |
| UAUAAGCAAUAUUACGCUAG | -2 ± 0.18 | -0.688 ± 0.23 |
| UAUAAGCAAUAUUACGGAAG | -2.72 ± 0.18 | -2.05 ± 0.18 |
| UAUAAGCAAUAUUACGGAGG | -2.6 ± 0.28 | -1.67 ± 0.19 |
| UAUAAGCAAUAUUACGGCAC | -1.53 ± 0.17 | -0.422 ± 0.23 |
| UAUAAGCAAUAUUACGGCAG | -0.0494 ± 0.099 | -0.0977 ± 0.14 |
| UAUAAGCAAUAUUACGGGAU | -3.79 ± 0.32 | -2.86 ± 0.19 |
| UAUAAGCAAUAUUACGGUAU | -3.16 ± 0.16 | -2.25 ± 0.17 |
| UAUAAGCAAUAUUACGUAAA | -2.23 ± 0.12 | -0.632 ± 0.14 |
| UAUAAGCAAUAUUACGUACC | -2.51 ± 0.19 | -1.2 ± 0.16 |
